Test results reported in US20220112258A1 (I MAB BIOPHARMA US, published 2022).

T1: IL7R of human primary CD4+ T cells (human, UniProt P16871 21-459)
T1 construct: whole, on cells; also called IL-7 receptor; IL7Rα (CD127) on CD4+ T cells
T1 sequence (looked up): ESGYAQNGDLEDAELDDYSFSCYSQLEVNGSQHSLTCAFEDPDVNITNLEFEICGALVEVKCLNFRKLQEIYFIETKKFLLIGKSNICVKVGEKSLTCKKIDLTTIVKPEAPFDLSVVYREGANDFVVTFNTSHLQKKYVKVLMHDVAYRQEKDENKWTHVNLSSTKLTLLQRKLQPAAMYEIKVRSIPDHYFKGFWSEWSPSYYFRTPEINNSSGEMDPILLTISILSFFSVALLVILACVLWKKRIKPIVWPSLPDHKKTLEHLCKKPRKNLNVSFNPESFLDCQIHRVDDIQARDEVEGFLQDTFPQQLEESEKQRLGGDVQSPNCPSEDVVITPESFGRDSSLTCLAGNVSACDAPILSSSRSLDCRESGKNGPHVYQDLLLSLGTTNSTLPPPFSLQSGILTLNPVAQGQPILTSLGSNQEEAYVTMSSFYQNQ


Legend:
[1] = target: T2, recombinant human his-tagged PD-L1 protein (human, UniProt Q9NZQ7 19-238); experiment: ELISA, his-tagged PDL1 coated, OD450
T2 construct: also called hPDL1-his; his-tagged human PD-L1; not shown: his tag
T2 sequence (Q9NZQ7 19-238 limits assumed): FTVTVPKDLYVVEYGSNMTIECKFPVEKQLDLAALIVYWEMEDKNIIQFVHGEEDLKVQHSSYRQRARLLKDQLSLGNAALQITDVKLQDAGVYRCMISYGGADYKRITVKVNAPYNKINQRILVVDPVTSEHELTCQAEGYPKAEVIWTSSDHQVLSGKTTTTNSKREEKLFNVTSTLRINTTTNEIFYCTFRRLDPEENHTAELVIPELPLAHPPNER
Excerpt: Briefly, for ELISA-based binding, his-tagged PDL1 was used as coating protein.

[2] = target: T3, PD-L1 expressed on cells (Raji-PD-L1; tumor cell lines RKO, HCC1954, HCC827) (human, UniProt Q9NZQ7 19-290); experiment: flow cytometry on HCC827 lung cancer cells, MFI
T3 construct: whole, on cells; also called cell-surface expressed PD-L1; cell surface PD-L1
T3 sequence (Q9NZQ7 19-290): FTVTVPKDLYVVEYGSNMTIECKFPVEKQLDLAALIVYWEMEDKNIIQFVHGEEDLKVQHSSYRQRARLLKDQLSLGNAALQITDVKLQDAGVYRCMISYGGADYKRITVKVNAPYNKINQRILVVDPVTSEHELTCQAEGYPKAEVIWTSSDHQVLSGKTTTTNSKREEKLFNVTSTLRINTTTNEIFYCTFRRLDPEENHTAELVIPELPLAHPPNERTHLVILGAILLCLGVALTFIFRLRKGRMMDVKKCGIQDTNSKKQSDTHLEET

[3] = target: T3, PD-L1 expressed on cells (Raji-PD-L1; …); experiment: flow cytometry on RKO colon carcinoma cells, MFI
[4] = target: T3, PD-L1 expressed on cells (Raji-PD-L1; …); experiment: flow cytometry on HCC1954 breast cancer cells, MFI
[5] = target: T3, PD-L1 expressed on cells (Raji-PD-L1; …); experiment: flow cytometry on Raji-PD-L1 cells, PE anti-human IgG Fc, MFI
Procedure: After washing by FACS staining buffer, the PE-conjugated anti-human IgG Fc specific antibody was added to each well and incubated on ice for 30 mins. The MFI of PE were evaluated by FACS Celesta.

[6] = target: T2, recombinant human his-tagged PD-L1 …; experiment: SPR (Biacore T200), ligand captured on protein A chip, hPDL1-his as analyte
Procedure: A series of dilutions of human PD-L1 protein were injected over captured antibody at a flow rate of 10 μL/min. […] All the experiments were carried out on a Biacore T200. Data analysis was carried out using Biacore T200 evaluation software.

[7] = target: T1, IL7R of human primary CD4+ T cells; experiment: flow cytometry on human primary CD4+ T cells, 4 °C 30 min, PE anti-human Fc
Procedure: Briefly, for IL7R binding assay, human primary CD4⁺ T cells were incubated with various anti-PDL1-IL7 fusion molecules at 4° C. for 30 mins. […] For ligation-mediated receptor internalization assay, human primary CD4⁺ T cells were cocultured with fusion molecules at 37° C. for 15 mins to induce internalization. PE-cy7-conjugated-anti-CD127 (IL7Rα) antibody was used to detect the surface IL7Rα by FACS.

EC50 [1]	EC50 [2]	EC50 [3]	EC50 [4]	EC50 [5]	Kd [6]	koff [6]	kon [6]	binding result [7]	Binder
0.46 nM	0.17 nM	0.19 nM	0.28 nM	0.11 nM	0.948 nM	0.000795 s⁻¹	838000 M⁻¹ s⁻¹	–	α-PDL1(anti-PD-L1 v4) monoclonal antibody (antibody, V domains shown, also called parental anti-PD-L1 (V4) antibody) VH: QVQLLESGGGLVQPGGSLRLSCAASGFTFSSYWMSWVRQAPGKGLEWVANIKQDGSEKYYVDSVKGRFTISRDNAKNSLYLQMNSLRAEDTAVYYCARVALWDDAFDIWGQGTMVTVSS VL: DIQMTQSPSTLSASVGDRVIITCRASRGISSWLAWYQQKPGKAPNLLISKASSLESGVPSRFSGSGSGTDFTLTISSLQPEDFATYYCQQSSSIPLTFGGGTKVEIK
0.11 nM	–	–	–	–	2.03 nM	0.000164 s⁻¹	80700 M⁻¹ s⁻¹	no binding (tested: 100 nM)	α-PDL1(anti-PD-L1 v3) monoclonal antibody (antibody, V domains shown, also called parental anti-PD-L1 antibody (v3)) VH: EVQLVESGGGLVQPGGSLRLSCAASGFTFSSYDMSWVRQAPGKSLEWVATISDAGGYIYYSDSVKGRFTISRDNAKNSLYLQMNSLRDEDTAVYICAREFGKRYALDYWGQGTTVTVSS VL: DIQMTQSPSSLSASVGDRVTITCKASQDVTPAVAWYQQKPGKAPKLLIYSTSSRYTGVPSRFSGSGSGTDFTFTISSLQPEDIATYYCQQHYTTPLTFGQGTKLEIK
